{
  "source": "patent US20100040631A1",
  "about": "(NEW YORK BLOOD CENTER, published 2010)",
  "molecular_target": "T1, N46 (HIV-1)",
  "T1 construct": "Synthetic peptide from the gp41 N-terminal heptad repeat; Used at 8 uM in CD and 0.5 uM in the ELISA; also called NHR-peptide N46",
  "assay": "competition ELISA: inhibition of six-helix bundle formation between N46 and C34-biotin (competitor), detected with mAb NC-1",
  "data": [
    {"binder": "WQEWEQKITALLEQAQIQQEKNEYELQKLDKWASLWEWF (39-mer hybrid polypeptide)", "note": "[T-1249]", "values": [
      {"measurement": "EC50", "value": 0.8, "unit": "µM"}
    ]}
  ]
}
